Experiment: label from the status in PepcDB records
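Also: failed if final PepcDB status was selected cloned or expressed and not failed if soluble or beyond.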

Q: For “MRFPSLLALGLTLPLGAFAAGGDSTGGSTWTNPPKETQTTKECKGVKVWDDKKKRCVAPKNSGLDADTLYDAVRELAYAGRPADAQGVLAAMPDQSDDRVLTYWGFTHRKLGDLDRAAFYYQAAIAANPDNILARSYMGQGFVEAGKTDLAIAQWREITARGGEGSWAEVSLREAIRSGLTYSY”, which protein production is on record?
A: failed

Q: For “MALQTEQFNANILRNGEWVESRTGERISISAPASGVALGSIPALSQEEVNDAIQGAKDAQKIWKIRPIHERVDLLYAWADLLEERKEIIGELIMHEVAKPKKSAIGEVSRTADIIRHTADEALRLNGETLKGDQFKGGSSKKIALVEREPLGVVLAISPFNYPVNLAAAKIAPALVTGNTVVFKPATQGSLSGIKMVEALADAGAPEGIIQVVTGRGSVIGDHLVEHPGIDMITFTGGTTTGERISEKAKMIPVVLELGGKDPAIVLDDADLKLTASQIVSGAFSYSGQRCTAIKRVFVQDSVADQLVANIKELVEQLTVGSPEDDADITPVIDEKSAAFIQGLIDDALENGATLLSGNKRQGNLLSPTLLDDVTPAMRVAWEEPFGPVLPIIRVKDANEAISLSNQSDYGLQASIFTKDTDRAINIGKHLEVGTVHINAKTERGPDHFPFLGVKKSGLGVQGIKPSLLSMTRERVTVLNL”, which protein production is on record?
A: not failed

Q: For “MEAITYKYYQEKYYGNILNEEDFKRYEKKARRKLSSFTFGRIDCLQNVPDEVGDCICDMAEKISLEESKENFSGIVSESTDGHSVTFEKKQSIEQMNKELYLIAVGYLNNTGLLYGGVCLCSTARNW”, which protein production is on record?
A: failed

Q: Which protein production does the source give for “MVTLCQVFGVHRSSYRYWKNRPEKPDGRRAVLRSQVLELHGISHGSAGARSIATMATRRGYQMGRWLAGRLMKELGLVSCQQPTHRYKRGGHEHVAMPKWVILYCRRWMEAPMQSCENGELITRTRGTPQGGVISPLLANLFLHYAFDLWMEREYRGVPFERYADDIVVHCSRMSDATRLKNRLSERFSEVGLVLNAGKTNIAYIDTFKRRNVATSFTFLGYDFKVRTLKNFKGERYRKCMPGASNAAMRKITETIKKWRIHRSTAESLLDFARRYNTIVRGWIEYYGKFWSRNFNYRLWSAMQSRLLKWMQSKYRLSNRKAQRKLTLVRKEYPKLFVHWYLLRASNE” here?
A: failed

Q: For “GLPRRAVTQLVEQPLVVVDFLAHITAQGGHAAVIGWKDLAYAGVIDSGGVCENIIAIPNPGTEPLNVAAVLCEGLDVVVYKGPEISLSPTRARPLLGKLRQGTAALVMVGTKVSSPALSVDAEITDYVGIGAGSGRIRGVEMQVRAVSKTHGVRSGKVLISRP”, which protein production is on record?
A: failed

Q: Which protein production does the source give for “MIQTFFDFPVYFKFFIGLFALVNPVGIIPVFISMTSYQTAAARNKTNLTANLSVAIILWISLFLGDTILQLFGISIDSFRIAGGILVVTIAMSMISGKLGEDKQNKQEKSETAVRESIGVVPLALPLMAGPGAISSTIVWGTRYHSISYLFGFFVAIALFALCCWGLFRMAPWLVRVLRQTGINVITRIMGLLLMALGIEFIVTGIKGIFPGLLN” here?
A: failed

Q: Which protein production does the source give for “MVPHHWASLWNRQLALQTSVRRRLRKEIDLIRFLKATAAADELTGIVGIAAQVIEALGEWGVGLLTLLETVFPPIPSEVILPLAGFLTQQGSMNLILVFVTSTLGAYAGAMLLYWLGYKVGLERSIKLLSKLPLVDREDFEKAAEWFERHGKSAIFFGRLLPGVRSLISLPAGAERMNLATFSVFTVAGTGLWNALLIGAGALLGKQYHLVDQYSRFLNYAVYAGLAALLVWLIIRRVKKRKESTR” here?
A: failed

Q: Which protein production does the source give for “MTGTSNIPTHGKEHKDAPALLPLPAPNPHHTHAAHPGNPSHDRPPSRGKLFIKTHGCQMNEYDSAKMADVLTTTEALELTDNPEEADIILINTCSIREKAQEKVFSQLGRWRALKTSGRDVIIGVGGCVASQEGEAIVKRAPYVDLVFGPQTLHRLPDMIRARREQNRPQVDIRFPEIEKFDHLPTPRAEGPSAFVSIMEGCSKYCSFCVVPYTRGEEVSRPFEDVLTEIAHLATQGVREINLLGQNVNAYRGAMDPGPSNNTNPAPPPYADLGLLIRAIAQFESIGRIRFTTSHPLEFSDSLVEAYRDVPQLANHLHLPVQSGSDRILSAMKRGYTALEFKSKIRKLRAVRPDISISSDFIIGFPGESDTDFQKTMQLIEDIGFDQSFSFIYSRRPGTPASNLEDHTPDEIKRTRLEHLQKHINTYAADISKRMIGTVQTVLVEGPSKKNPNELTGKTENMRPVNFPGHPRLIGQFIDVHITEALSNSLRGRVHTNLEHHHHHH” here?
A: not failed

Q: For “MAGDQELELRFDVPLYTLAEASRYLVVPRATLATWADGYERRPANAPAVQGQPIITALPHPTGSHARLPFVGIAEAYVLNAFRRAGVPMQRIRPSLDWLIKNVGPHALASQDLCTDGAEVLWRFAERSGEGSPDDLVVRGLIVPRSGQYVFKEIVEHYLQQISFADDNLASMIRLPQYGDANVVLDPRRGYGQPVFDGSGVRVADVLGPLRAGATFQAVADDYGVTPDQLRDALDAIAA”, which protein production is on record?
A: not failed

Q: With “MLVFLTRFTPMNLIRNRWAQIFTQSILGVLIAGGTAWAGDPFRPNNPHNIGDQTEAAFEAIFRDGNYRGAEEILAGAIQAEPNEPLVYAMQASFAYDANDMEGMRKYAQQTLESAQRLAPSDPLRGNLYIAVGHFLEGSYLLKKGSYLQAVGKTGTVFEHLDKASAINPNDPELNLLRGYLDLFLSRYTPFSQSEQVISRFEQYAAPDYLRYRALATTYRDLEKYDLAMANIDRALAITPDNPELQYLKGQFLRNEGRRSMDLGKLQQAQQYYAMALQKQDQLSRALVVQLNHENNAVVDEIQKLAQNPSLKGF” as the sequence, how does the protein production read?
A: failed

Q: Which protein production does the source give for “MNPENKMMLMAYGIFAIAGIISGILAYAPLGWIIGWIIYILAPKLLLNLVPDLPEELRNERVILRKTFWSFFFFWLYFTGLTYTLITNYEPVAYYEKALYYNITKG” here?
A: failed

Q: With “MRGKILIFLHAHLPYVHHPEYDHFLEERWLFEAITETYIPLLMMFDEIEDFRLTMSITPPLMEMLSSRDLQEKYERHMEKLIELANKEVERTKKEHPLKHKMAKFYREHFEKILNVFRSYDGNILEGFKKYQETGKLEIVTCNATHAFLPLYQMYPEVVNAQITVGVKNYAKHMTLHPRGIWLAECGYYQGLDLYLAQNNVEYFFVDSHAFWFADEQPRYGVYRPIMTPSGVFAFARDPESSEQVWSAAVGYPGDPRYREFYRDIGFDREMEYIKDYIDPSGVRINTGIKYHRITSKSLDASQKEYYDIDLAMEAVEEHARDFLHKKESQARRLMDIMGVEPVIVAPFDAELFGHWWFEGVFFLKRFFELVNESKDLKLVTASEVIDTLEEVQIATPADSSWGAGGYYETWLNGTNDWIYRHLHEMIERMIDLSKKYYNSSDPLVERVLNQMLRELFLAQSSDWAFIMTTRTSVQYAENRTKLHIKRFLNLYDQLVSGRIDEEMLRYYEWTDAIFPEINFRVMARDVI” as the sequence, how does the protein production read?
A: not failed

Q: With “MSKVNQQDIDKLIELVGGRGNIATVSHCITRLRFVLNDPAIARPKEIEQLRMVKGCFTNAGQFQVVIGTEVGDYYKALLATTGQTSADKEQVKQAARQNM” as the sequence, how does the protein production read?
A: failed

Q: For “MKGENMMVKLIALYEQPEDKQAFDEHYFNTHAPLTRKIPGLRDMKVTRIVGSPMGESKFYLMCEMYYDDHESLQQAMRTDEGKASGKDAMKFAGKLLTLMIGEEMDE”, which protein production is on record?
A: not failed

Q: Which protein production does the source give for “MSIVIVGGNERMVCQYEDICKGYGCKAKVFAKEKGAMKKKIGAPDLMILFTGTVSHKMVNCAVEEAKKKSIPVCRCHTSSASALESILREYCALEHHHHHH” here?
A: failed

Q: Which protein production does the source give for “ANGTVATAAIQPKKVKGVGFGDIFKDKPIKLRPRSIEVENDFLPVEKTIGKKLPATTATPDSSKTEMDSRTKSKDYCKVIFPYEAQNDDELTIKEGDIVTLINKDCIDVGWWEGELNGRRGVFPDNFVKLLPPDFEKEGNR” here?
A: failed

Q: Which protein production does the source give for “MTAFRCLITGLTWLAKPGIRRYVWIPLAVNLVLYGLGLWLGIRYFSAFLNWMLPGWLDFLRWLLWPVFAVGFFTVMYFTFSVLANIIGSPFYGVLAERTAELATGRRIRPAGVAGEVGMWSALRSEFRRLAYLGLRIVPLAALFLVPVVNLVAPVLWMLFNAWFMALEYTAYPLEARGYDFDHQRSLLGRFRLGAATFGGTVLLAQTIPLLNVLAAPAAVIGATLYLLELPVEE” here?
A: failed

Q: Which protein production does the source give for “SARFALTVVRHGETRFNKEKIIQGQGVDEPLSETGFKQAAAAGIFLNNVKFTHAFSSDLMRTKQTMHGILERSKFCKDMTVKYDSRLRERKYGVVEGKALSELRAMAKAAREECPVFTPPGGETLDQVKMRGIDFFEFLCQLILKEADQKEQFSQGSPSNCLETSLAEIFPLGKNHSSKVNSDSGIPGLAASVLVVSHGAYMRSLFDYFLTDLKCSLPATLSRSELMSVTPNTGMSLFIINFEEGREVKPTVQCICMNLQDHLNGLTETR” here?
A: not failed

Q: For “MDKHNEEHIYVAIDLKSFYASVECRERGKDALTTNLVVADPTRTEKTICLAVSPALKAYGIPGRARLFEVVQRVKEVNKLRLSKLMASGHAAGTVERRKKYVTEIDIAENDITESTMAGFDYASYNANLLDAHPEYELTYIVAPPRMALYMDYSTRIYNIYLKYIAPEDISVYSIDEVFMDVTHYLRTYHMTARELASKMIDDVLKDTGITATCGIGTNLYLCKIAMDIMAKHAMPDERGVRIAELNENSYRRKLWDHRPITDFWRVGAGYAKKLEAAGMYTMGDVARCSTGGSNDFYNEEKLYKMFGINAELLIDHAWGYEPVTIADIKAYRPQTNSISSGQVLQEPYDYEKTKLIVREMTDLLVLDLVDKRLVTDQIVLTIGYDIANLSNKADSCLGNNYDHAVNNKGRDSIGGKKGTHRDYTGEITIDRYGRKVPKHAHGTANLGRYTSSTRIIMDAVMELYDRIIDPSLLTRRITVVANRVCDESKVQESEQFEQLDLFTDYQARAKEKKKEDEALSKERKLQEAMISVKKKYGKNAMLKGMNLEEGATTISRNNQIGGHKA”, which protein production is on record?
A: failed

Q: Which protein production does the source give for “MVAVTYSPGPHLERFLASLSLATERPVSVLLADNGSTDGTPQAAVQRYPNVRLLPTGANLGYGTAVNRTIAQLGEMAGDAGEPWVDDWVIVANPDVQWGPGSIDALLDAASRWPRAGALGPLIRDPDGSVYPSARQMPSLIRGGMHAVLGPFWPRNPWTTAYRQERLEPSERPVGWLSGSCLLVRRSAFGQVGGFDERYFMYMEDVDLGDRLGKAGWLSVYVPSAEVLHHKAHSTGRDPASHLAAHHKSTYIFLADRHSGWWRAPLRWTLRGSLALRSHLMVRRSRRRKLKLVEGRH” here?
A: failed

Q: With “SSEDLAKQLASYKAQLQQVEAALSGNGENEDLLKLKKDLQEVIELTKDLLSTQPSETLASSDSFASTQPTHSWKVGDKCMAVWSEDGQCYEAEIEEIDEENGTAAITFAGYGNAEVTPLLNLKPVEEGRKAKEDSGNKPMSKKEMIAQQREYKKKKALKKAQRIKELEQEREDQKVKWQQFNNRAYSKNKKGQVKRSIFASPESVTGKVGVGTCGIADKPMTQYQDTSKYNVRHLMPQ” as the sequence, how does the protein production read?
A: failed

Q: With “VRPGDTEIDKLVALIDAADKVTLFCGSGTAGAHAEVMEFAEKIKSPVGHALRGKEWIQYDNPYDVGMSGLLGYGAAYEATNECDLLILLGTDFPYNAFLPTDVKIAQVDVRPERLGRRSKLDLAVWGDVRETLRCLIPRVKPKENRRFLDKMLKKHADALEGVIKAYTRKVEK” as the sequence, how does the protein production read?
A: failed

Q: Which protein production does the source give for “MKKDVLIFVKGTQEYPINSLENSIEFFTEGTFYKKGESFYVTYKESELTGLEGTTTTFKIQPNHITLIRYGDVTSTLIFEPGKRHISTYITEEGVIMIGVYTKKMKVDLTENGGEVFVEYAIDLDSHMMSENDFLLKIKEAGVKNLEHHHHHH” here?
A: not failed

Q: With “MMENQVNEQTVTSPENGSSATGYNSGIWDGLSVVALIGGAIASVVLPANPAAGVIPVAAGVGLHLFNRKQLEEHLLANQRATAAQIVQLVNQNQAHLQEYLQKFQGDIQTSLGQQQQAIAANQENLTKALAEKSLALQGKLEAFQAAAAQTHAGLDIKHQDLLAVVTELRTMEGCTQSLAAYPHAEAYYQRGLSHYRLEDWAEAVRDCTEAIRLRGDLAGAFHHRGMAYARLDNRKQATDDLRQAYKLYFDQGDLDSYEVARALHKQYYEGPVEDLELEPTPVMPPAEGVGHEAYIADPDREIKPLLAEESDTTAANLFG” as the sequence, how does the protein production read?
A: failed
